Experimental data as given in PMC9604149, “Evolution of the vls Antigenic Variability Locus of the Lyme Disease Pathogen and Development of Recombinant Monoclonal Antibodies Targeting Conserved VlsE Epitopes” (Microbiology Spectrum, 2022).

B1: antibody in the supernatant of rabbit B cell line 28D3 (antibody, V domains shown)
VH: QSVEESGGRLVTPGTPLTLTCTVSGFSLSSYSMGWVRQAPGKGLEYIGMIISNNSTYYASWAKGRITISKTSTTVELKITSPTTEDTATYFCGTGNIWGPGTLVTVSS
VL: AQVLTQTPASVSAAVGGTVTINCQASQSTSNNNALAWFQQKPGQPPKRLIYSALTLDSGVPSRFKGSGSGTHFTLTISGVQCDDAATYYCAGGYDCSSNDCITFGGGTEVVVK
notes: Unpurified antibody of the cell line
B2: antibody in the supernatant of rabbit B cell line 17A8 (antibody, V domains shown)
VH: QSVEESGGRLVTPGTPLTLTCTVSGFPLSSYSMAWVRQAPGKGLEYIGFINTDGSAYYASWAKGRITISKTSTTVELKITSPTTEDTATYFCGTGNIWGPGTLVTVSS
VL: AQVLTQTPSSVSAAVGGTVTINCQASQSVSNNNVLAWFQQKPGQPPKRLIYSALTLDSGVPSRFKGSGSGTHFTLTISGVQCDDAATYYCAGGYDCSSNDCIAFGGGTEVVVK
notes: as for B1
B3: antibody in the supernatant of rabbit B cell line 15E2 (antibody, V domains shown)
VH: QSLEESGGGLFKPTDTLTLTCTVSGIDLSSYAMIWVRQAPGKGLEWIGYIWSSGRIWYASWAKGRFTISRTSTTVDLKLASPTTEDTATYFCARLWDIWGPGTLVTVSS
VL: AQVLTQTPSSVSAAVGGTVTISCQASQSLYNGVNLAWYQQKPGQPPKLLIFGASNLESGVSSRFRGSGSGTQFTLTISGVQCDDAATYYCLGEFSCSSADCLAFGGGTEVVVK
notes: as for B1
B4: antibody in the supernatant of rabbit B cell line 1D11 (antibody, V domains shown)
VH: QSLVESGGGLVQPEGSLTLTCKASGFSFSSGYDMCWVRQAPGKGLEYIACIDAGDDITHYASWVKGRFTVSKTSSTTVTLQLNSLTVADTATYFCGRFWDLWGPGTLVTVSS
VL: SSVLTQTPSPVSAAVGGTVTINCQSSQSVYDSTWLGWYQQKPGQPPKLLIYKASNLASGVPSRFKGSGSGTHFTLTISDLECDDAATYYCVGGYSGSVDNWAFGGGTEVVVK
notes: Unpurified antibody of the cell line; also called anti-IR6 1D11 cell line
B5: recombinant monoclonal antibody 17A8-1 (antibody, V domains shown)
VH: QSVEESGGRLVTPGTPLTLTCTVSGFPLSSYSMAWVRQAPGKGLEYIGFINTDGSAYYASWAKGRITISKTSTTVELKITSPTTEDTATYFCGTGNIWGPGTLVTVSS
VL: AQVLTQTPSSVSAAVGGTVTINCQASQSVSNNNVLAWFQQKPGQPPKRLIYSALTLDSGVPSRFKGSGSGTHFTLTISGVQCDDAATYYCAGGYDCSSNDCIAFGGGTEVVVK
notes: the antibody was detected with an anti-rabbit IgG secondary antibody; Only the variable regions are printed; also called anti-IR4 rMAb; source: made by GenScript
B6: recombinant monoclonal antibody 28D3-1 (antibody, V domains shown)
VH: QSVEESGGRLVTPGTPLTLTCTVSGFSLSSYSMGWVRQAPGKGLEYIGMIISNNSTYYASWAKGRITISKTSTTVELKITSPTTEDTATYFCGTGNIWGPGTLVTVSS
VL: AQVLTQTPASVSAAVGGTVTINCQASQSTSNNNALAWFQQKPGQPPKRLIYSALTLDSGVPSRFKGSGSGTHFTLTISGVQCDDAATYYCAGGYDCSSNDCITFGGGTEVVVK
notes: as for B5
B7: recombinant monoclonal antibody 15E2-1 (antibody, V domains shown)
VH: QSLEESGGGLFKPTDTLTLTCTVSGIDLSSYAMIWVRQAPGKGLEWIGYIWSSGRIWYASWAKGRFTISRTSTTVDLKLASPTTEDTATYFCARLWDIWGPGTLVTVSS
VL: AQVLTQTPSSVSAAVGGTVTISCQASQSLYNGVNLAWYQQKPGQPPKLLIFGASNLESGVSSRFRGSGSGTQFTLTISGVQCDDAATYYCLGEFSCSSADCLAFGGGTEVVVK
notes: as for B5
B8: recombinant monoclonal antibody 1D11-4 (antibody, V domains shown)
VH: QSLVESGGGLVQPEGSLTLTCKASGFSFSSGYDMCWVRQAPGKGLEYIACIDAGDDITHYASWVKGRFTVSKTSSTTVTLQLNSLTVADTATYFCGRFWDLWGPGTLVTVSS
VL: SSVLTQTPSPVSAAVGGTVTINCQSSQSVYDSTWLGWYQQKPGQPPKLLIYKASNLASGVPSRFKGSGSGTHFTLTISDLECDDAATYYCVGGYSGSVDNWAFGGGTEVVVK
notes: the antibody was detected with an anti-rabbit IgG secondary antibody; Only the variable regions are printed; also called anti-IR6 rMAb; source: made by GenScript

molecular target: T1, recombinant VlsE protein (of strain B31) (Borreliella burgdorferi B31 (clone …, UniProt O06878)); test: ELISA; antigen (IR peptide or recombinant VlsE) coated on a 96-well plate at 10 ug/mL overnight at 4 C, blocked with 5% milk; supernatants of rabbit B cell lines applied; HRP anti-rabbit IgG secondary 1:30,000; OD450; reactive if more than 3 SD above the mean BSA reactivity; settings: one partner purified
T1 construct: VlsE of B. burgdorferi B31, clone B31-5A3: the 585-bp vlsE cassette region (including the IR1 through VR6 regions), codon-optimized; 585 bp would encode about 195 residues; also called recombinant B31 VlsE; vlsE cassette; source: E. coli BL21 (pET24), purified (Ni-NTA); estimated purity ~65%

| Binder | binding result |
| --- | --- |
| B1 | binds |
| B2 | binds |
| B3 | binds |
| B4 | binds |

molecular target: T1, recombinant VlsE protein (of strain B31); test: ELISA; validation of the specificity of the purified rMAbs: antigen (IR peptide or VlsE) fixed on the plate; dilution not told; settings: both partners purified

| Binder | binding result |
| --- | --- |
| B5 | binds |
| B6 | binds |
| B7 | binds |
| B8 | binds |
